From patent US20140086913A1 (Gilead, published 2014) come the findings set out here.

The target in assay [1] is T1, human DDR2 stably expressed on HEK293 cells (human) (UniProt Q16832).
T1 sequence (looked up): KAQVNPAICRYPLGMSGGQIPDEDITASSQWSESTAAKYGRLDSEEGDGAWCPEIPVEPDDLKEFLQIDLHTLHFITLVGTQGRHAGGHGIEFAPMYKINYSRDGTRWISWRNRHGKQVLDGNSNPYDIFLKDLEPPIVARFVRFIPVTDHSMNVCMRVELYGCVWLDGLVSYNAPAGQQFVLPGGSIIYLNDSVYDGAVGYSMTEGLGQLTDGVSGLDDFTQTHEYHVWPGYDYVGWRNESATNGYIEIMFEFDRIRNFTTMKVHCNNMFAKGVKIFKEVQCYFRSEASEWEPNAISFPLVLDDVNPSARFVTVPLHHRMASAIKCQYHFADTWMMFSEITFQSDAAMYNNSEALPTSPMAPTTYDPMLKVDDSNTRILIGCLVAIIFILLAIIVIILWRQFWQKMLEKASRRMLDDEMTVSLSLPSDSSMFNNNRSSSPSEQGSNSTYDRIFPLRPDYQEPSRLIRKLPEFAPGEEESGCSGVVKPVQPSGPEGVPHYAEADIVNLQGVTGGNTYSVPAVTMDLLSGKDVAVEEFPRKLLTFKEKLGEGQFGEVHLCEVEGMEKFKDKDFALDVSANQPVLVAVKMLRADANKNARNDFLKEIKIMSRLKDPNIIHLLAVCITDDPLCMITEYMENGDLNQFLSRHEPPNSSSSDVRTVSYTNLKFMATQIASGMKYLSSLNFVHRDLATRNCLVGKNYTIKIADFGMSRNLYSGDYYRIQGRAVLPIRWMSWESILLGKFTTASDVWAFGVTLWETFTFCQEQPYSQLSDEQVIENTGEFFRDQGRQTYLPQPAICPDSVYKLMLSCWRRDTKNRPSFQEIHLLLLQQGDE
Kind of assay: flow cytometry, HEK293/hDDR2.

The target of assay [2] is DDR1 with a ProLink Tag (PK) in engineered U20S cells (DiscoveRx), Q08345. Description: cell-based or functional assay.
Assay [3] deals with DDR1 endogenously expressed on human cancer cell lines (T47D, HCT-116, A431) (human) (UniProt Q08345). Description: flow cytometry, HCT116 cells.
For assay [4] the target is unchanged. Description: flow cytometry, T47D cells. Background: Flow cytometry measures light scatter and fluorescence of single cells or particles in a stream.
For assay [5] the target is unchanged. Description: cell-based or functional assay.
Assay [6] deals with T2, human ECD-DDR1-His protein (human, UniProt Q08345 21-416).
T2 construct: also called huDDR1-ECD-His; DDR1ECD-6Xhis; not shown: His tag
Description: ELISA, coated antigen, apparent KD. Summed up:
(§1)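 Plates coated overnight at 4° C with 2 μg/mL purified tagged DDR1 ECD protein, BSA-blocked; serially diluted murine anti-DDR1 mAbs bound 1 hr at room temperature, detected with anti-mouse IgG-HRP and TMB (OD 450). Apparent KD taken as C-parameter of 4-parameter logistic fit of OD versus antibody concentration.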

Assay [7] deals with T3, DDR1ECD-Fc (R&D Systems, Catalog #2396-DR) (human, UniProt Q08345 21-416).
T3 construct: range 21-416; construct as described for the bought immunogen; also called human ECD-DDR1-Fc; Fc-ECD-DR1; not shown: human IgG1, Pro100-Lys330
Description: ELISA, coated antigen, apparent KD. Summed up:
as §1
(In general: An ELISA detects its analyte on a solid surface through an enzyme-linked reagent.)

Assay [8] deals with T4, mouse ECD-DDR1-Fc (mouse; human, UniProt Q03146 22-414).
T4 construct: also called mouse DDR1-ECD; wild-type mouse DDR1-ECD; not shown: human IgG1 Fc of the vector pFuse-hIgG1-Fc1 (Invivogen)
T4 sequence: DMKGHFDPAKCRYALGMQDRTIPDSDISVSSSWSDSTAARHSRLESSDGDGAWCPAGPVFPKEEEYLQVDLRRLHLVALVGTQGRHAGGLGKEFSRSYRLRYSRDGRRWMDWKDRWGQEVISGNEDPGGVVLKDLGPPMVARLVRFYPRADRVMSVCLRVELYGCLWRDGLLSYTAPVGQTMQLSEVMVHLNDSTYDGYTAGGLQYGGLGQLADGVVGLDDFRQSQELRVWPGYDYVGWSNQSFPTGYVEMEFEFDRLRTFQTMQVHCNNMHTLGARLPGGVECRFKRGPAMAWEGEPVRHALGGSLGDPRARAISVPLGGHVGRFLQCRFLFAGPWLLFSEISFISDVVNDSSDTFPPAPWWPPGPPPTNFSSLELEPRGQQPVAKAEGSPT
Kind of assay: ELISA, coated antigen, apparent KD. In short, it runs like this: as §1

The target in assay [9] is human DDR1 (isoform B) stably expressed on HEK293 cells (human) (UniProt Q08345). Description: flow cytometry, HEK293/hDDR1.
Sequence of human DDR1 (isoform B) stably expressed on HEK293 cells (human) (Q08345 19-913): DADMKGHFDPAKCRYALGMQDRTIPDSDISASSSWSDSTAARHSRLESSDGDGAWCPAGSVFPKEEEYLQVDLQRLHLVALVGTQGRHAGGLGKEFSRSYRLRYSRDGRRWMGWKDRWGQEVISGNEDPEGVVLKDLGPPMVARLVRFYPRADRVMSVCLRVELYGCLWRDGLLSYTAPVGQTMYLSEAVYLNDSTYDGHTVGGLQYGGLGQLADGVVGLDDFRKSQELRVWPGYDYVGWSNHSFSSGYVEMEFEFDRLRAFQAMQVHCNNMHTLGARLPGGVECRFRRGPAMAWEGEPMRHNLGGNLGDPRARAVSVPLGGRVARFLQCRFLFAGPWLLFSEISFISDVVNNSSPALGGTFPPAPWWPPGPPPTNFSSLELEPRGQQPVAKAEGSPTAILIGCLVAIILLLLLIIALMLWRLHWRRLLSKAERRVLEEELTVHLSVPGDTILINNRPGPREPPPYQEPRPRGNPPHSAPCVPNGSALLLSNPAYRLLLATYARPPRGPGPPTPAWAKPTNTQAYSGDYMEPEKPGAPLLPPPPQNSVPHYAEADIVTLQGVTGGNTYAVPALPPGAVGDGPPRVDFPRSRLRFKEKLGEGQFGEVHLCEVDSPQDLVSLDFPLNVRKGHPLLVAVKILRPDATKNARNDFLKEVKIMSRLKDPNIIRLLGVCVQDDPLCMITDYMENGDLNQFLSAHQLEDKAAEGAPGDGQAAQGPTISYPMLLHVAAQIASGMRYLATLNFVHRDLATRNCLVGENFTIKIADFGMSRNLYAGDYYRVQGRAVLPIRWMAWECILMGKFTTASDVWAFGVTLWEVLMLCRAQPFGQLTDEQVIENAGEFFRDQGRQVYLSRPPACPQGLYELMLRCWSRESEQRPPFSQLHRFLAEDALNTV
For assay [10], the target named is T4, mouse ECD-DDR1-Fc. Kind of assay: ELISA, coated antigen. The method, then: (§2) In this study, ELISA was used to determine the affinity of murine anti-DDR1 monoclonal antibodies to the extracellular domain (ECD) of either human or murine DDR1. A 96-well MaxiSorb ELISA plates (Nunc) were coated with 2 μg/mL of one of three purified recombinant tagged proteins: human ECD-DDR1-His protein, human ECD-DDR1-Fc, or mouse ECD-DDR1-Fc overnight at 4° C. The next day, the plates were blocked with 5% bovine serum albumin (BSA, Jackson Immunoresearch) prior to the addition of serially diluted anti-DDR1 monoclonal antibodies. Antibodies were incubated for 1 hr at room temperature. The binding of antibody to the antigen was detected by incubating samples with anti-mouse IgG-HRP (horse radish peroxidase) secondary detection antibody (Jackson Immunoresearch) for 1 hr. After a washing step, 3,3′,5,5″-tetramethylbenzidine (TMB) reagent was added for HRP to produce a colorimetric signal. The reaction was stopped by addition of 1M hydrochloric acid after 2 minutes and measured for absorbance (optical density, OD) at 450λ on a Molecular Devices plate reader. The OD values were plotted against antibody concentration and fitted using a using 4-parameter logistic equation in SoftMax software (Molecular Devices). The apparent affinity constant (KD) was taken from the C-parameter of the equation (y=(A−D)/(1+(x/C)̂B)+D). The apparent affinity constants were summarized (in some cases shown as average values) in Table 10 below. Lower value indicates higher binding affinity of the antibody to the antigen.

For assay [11], the target named is T5, human DDR2 stably expressed on HEK293 cells (human, UniProt Q16832 22-855).
T5 construct: whole, on cells; also called hDDR2
T5 sequence (looked up): T1 sequence (looked up)
Kind of assay: flow cytometry, HEK293/hDDR2. Summed up: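 Anti-DDR1 mAbs or isotype controls (2 μg per 1×10⁶ cells) were incubated with the stably transfected HEK293 cells at 4 °C for 1 hr, then detected with anti-IgG-PE at 4 °C for 1 hr. Binding was read as flow-cytometry MFI, with vector-only HEK293 background subtracted.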

Assay [12] addresses T3, DDR1ECD-Fc (R&D Systems, Catalog …). Kind of assay: ELISA, coated antigen, apparent KD; human ECD-DDR1-Fc coated on the plate, not the His-tagged or mouse antigen. The method, then: as §2, with “The apparent affinity constants were summarized (in some cases shown as average values) in Table 10 below. Lower value indicates higher binding affinity of the antibody to the antigen.” left out

B1: AB2080 (antibody, V domains shown)
VH: EVQLQQSGPELVKPGASMKISCKASGYSFTGYTMTWVKQSHGKNLEWIGLINPYIGVTSYNQKFKGKATLTVDKSSSTAYMELLSLTSEDSAVYYCARLYDRGGRYAMDYWGQGTSVTVSS
VL: QIVLTQSPAIMSASPGEKVPMTCSASSSVSFMHWYQQKSGTSPKRWIYDTSKLASGVPARFSGSGSGTSYSLTISNMEAEDAATYYCQQWNSDPWTFGGGSKL
notes: mouse hybridoma mAb
Consider B1, for which the MFI was 313 MFI in assay [1], 572 MFI in assay [3], 1220 MFI in [4] and 3140 MFI in assay [9]. Also, the Mean EC50, DDR1 Tyr513 phosphorylation assay (U20S) in assay [2] stood at 2.2 nM. The molecule also yielded an EC50, DDR1 phospho-specific ELISA (T47D) in assay [5] of 4.67 nM. The molecule also showed an EC50, cluster formation assay (A431 cells) in assay [5] of 1.24 nM. The Maximal inhibition, DDR1 phospho-specific ELISA (T47D) in assay [5] was 100%. For the same molecule, the Kd is 0.418 nM in assay [6], 0.669 nM in assay [7] and 2.89 nM in the assay with mouse ECD-DDR1-Fc [8].

B2: AB2002 (antibody, V domains shown)
VH: EVNLVESGGGLVKPGGSLKLSCAASGFTFSTYAMSWVRQTPEKRLEWVASISSGGITHYPDSMKGRFTVSRDNARNILYLQMRSLRSEDTAKYYCARGRSSMIPDYWGQGTSVSVSS
VL: DIVMTQSHKFMSTSVGDRVSITCKASQDVGTAVAWYQQKPGQSPKLLIYWASTRHTGVPDRFTGSGSGTDFTLTISNVQSEDLADYFCQQYSTYPLTFGAGTKLELKR
notes: mouse hybridoma mAb
Turning to B2, the binding result with mouse ECD-DDR1-Fc [10] is given as “no binding”. This molecule came in with a Mean EC50, DDR1 Tyr513 phosphorylation assay (U20S) in [2] of 4.5 nM. In addition, the MFI in [3] was 1010 MFI; in assay [4], 3590 MFI; in assay [11] it was 170 MFI; in [9], 7240 MFI. The molecule further showed an EC50, DDR1 phospho-specific ELISA (T47D) in [5] of 1.07 nM. The EC50, cluster formation assay (A431 cells) in assay [5] worked out at 9.72 nM. The molecule also displayed a Maximal inhibition, DDR1 phospho-specific ELISA (T47D) in assay [5] of 100%. Besides, the NPI of cluster formation at 66 nM (A431 cells) in assay [5] turned out to be 102%. In addition, the Kd in [6] amounted to 0.233 nM; in [12], 0.268 nM.
